This note sets out measurements from patent publication US10894986B2, “Compositions and methods for treating or preventing prostate cancer and for detecting androgen receptor variants” (The Johns Hopkins University, priority 2008, dated 2021).

In one test the test system is LNCaP cells. Briefly: MTS cell growth assay of transfected LNCaP cells. Type of test: cell-based, human. The settings on record: charcoal stripped serum, absence or presence of 0.5 nM R1881. The procedure:
LNCaP cells were transfected by AR-V7 and the control vector. A. Cell growth in medium supplemented with charcoal stripped serum (CSS) in absence or presence of 0.5 nM R1881 were monitored by MTS assay. Ectopic expression of AR-V7 in LNCaP cells was confirmed by western blot analysis (B). As shown the growth rates of AR-V7 expressing cells surpassed those of parental cells cultured in the presence of synthetic androgen R1881.
On the technique in general: Formazan colour is commonly taken as a measure of viable cells.

For the next test, the system named is PSA reporter gene. Particulars: exogenously transfected, AR-negative PC-3 cells, presence or absence of R1881.
For test [1], the system named is androgen-responsive genes (KLK3, KLK2, NKX3-1, FKBP5, TMPRSS2). The settings on record: LNCaP cells, absence of androgens.
From the text: LNCaP cells were transfected with pcDNA-AR-V7 to express the untagged AR-V7 protein or the control pcDNA vector and cultured with or without 10 nmol/L R1 881 before being harvested for Western blot analysis or RNA extraction for expression microarray analysis. The genes shown were the top 20 ranked genes by fold induction following R1 881 treatment in pcDNA empty vector-transfected LNCaP cells. Expression ratios of the test sample versus the common reference (pcDNA empty vector-transfected LNCaP without R1 881) were represented by red (>1) and green colors (<1).

From the text for PSA reporter gene: PC-3 cells were transfected with pEGFP-AR and pEGFP-AR-V7 to express the prototype AR or AR-V7 and examined for the localization of GFP-tagged AR proteins in the presence or absence of 5 nmol/L R1 881. […] PC-3 cells were transfected with vector control (EGFP), a LBD-truncated AR mutant (EGFP-Q640X), AR-V7 (EGFP-AR-V7), and prototype AR (EGFP-AR) and subjected to luciferase assays and Western blot analysis following culturing in the presence or absence of R1 881. […] LNCaP cells were transfected with pcDNA-AR-V7 to express the untagged AR-V7 protein or the control pcDNA vector and cultured with or without 10 nmol/L R1 881 before being harvested for Western blot analysis or RNA extraction for expression microarray analysis. The genes shown were the top 20 ranked genes by fold induction following R1 881 treatment in pcDNA empty vector-transfected LNCaP cells. Expression ratios of the test sample versus the common reference (pcDNA empty vector-transfected LNCaP without R1 881) were represented by red (>1) and green colors (<1).
pEGFP-AR and pEGFP-Q640X, which contain the full-length prototype AR and AR Q640X LBD-truncated mutant cDNA, were kind gifts of Dr. Jocelyn Céraline (Université Strasbourg, Strasbourg, France). The cDNA encoding the full-length AR-V7 was inserted into the pEGFP-C3 vector to express the GFP-AR-V7 fusion protein. […]

B1: AR-V7: androgen receptor variant lacking the ligand binding domain, SEQ ID NO: 8, expressed from transfected cDNA (protein)
chain: MEVQLGLGRVYPRPPSKTYRGAFQNLFQSVREVIQNPGPRHPEAASAAPPGASLLLLQQQQQQQQQQQQQQQQQQQQQQQETSPRQQQQQQGEDGSPQAHRRGPTGYLVLDEEQQPSQPQSALECHPERGCVPEPGAAVAASKGLPQQLPAPPDEDDSAAPSTLSLLGPTFPGLSSCSADLKDILSEASTMQLLQQQQQEAVSEGSSSGRAREASGAPTSSKDNYLGGTSTISDNAKELCKAVSVSMGLGVEALEHLSPGEQLRGDCMYAPLLGVPPAVRPTPCAPLAECKGSLLDDSAGKSTEDTAEYSPFKGGYTKGLEGESLGCSGSAAAGSSGTLELPSTLSLYKSGALDEAAAYQSRDYYNFPLALAGPPPPPPPPHPHARIKLENPLDYGSAWAAAAAQCRYGDLASLHGAGAAGPGSGSPSAAASSSWHTLFTAEEGQLYGPCGGGGGGGGGGGGGGGGGGGGGGGEAGAVAPYGYTRPPQGLAGQESDFTAPDVWYPGGMVSRVPYPSPTCVKSEMGPWMDSYSGPYGDMRLETARDHVLPIDYYFPPQKTCLICGDEASGCHYGALTCGSCKVFFKRAAEGKQKYLCASRNDCTIDKFRRKNCPSCRLRKCYEAGMTLGEKFRVGNCKHLKMTRP
B1: the cell growth result in the test with LNCaP cells is given as “promotes androgen independent growth”. The “PSA reporter gene expression” value in the test with PSA reporter gene was “induced PSA reporter gene expression in an androgen-independent manner”. In test [1], the “induction of androgen-responsive genes” value was “induced canonical androgen-responsive genes”.
